Results taken from US8088892B2, “Inhibitors of proteins from the Rho-GEF family” (Centre National de la Recherche Scientifique (C.N.R.S.), priority 2002, dated 2012).
“Also recorded” adds a separate entry of the source.

T1: Dbl (Homo sapiens, UniProt P10911)
T1 construct: Dbl (a.a. 498-826); expressed in transfected cells; host or cells: yeast
T1 sequence (P10911 498-826): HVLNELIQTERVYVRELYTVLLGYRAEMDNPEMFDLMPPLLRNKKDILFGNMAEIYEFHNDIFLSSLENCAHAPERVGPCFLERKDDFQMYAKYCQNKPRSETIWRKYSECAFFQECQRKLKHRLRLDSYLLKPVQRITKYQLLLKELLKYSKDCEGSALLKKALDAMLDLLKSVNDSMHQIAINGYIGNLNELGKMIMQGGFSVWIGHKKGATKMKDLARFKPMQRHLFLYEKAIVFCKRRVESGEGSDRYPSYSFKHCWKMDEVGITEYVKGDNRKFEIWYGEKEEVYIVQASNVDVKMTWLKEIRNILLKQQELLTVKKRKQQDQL

T2: p115RhoGEF (Homo sapiens, UniProt Q92888)
T2 construct: p115RhoGEF (a.a. 391-870); expressed in transfected cells; host or cells: yeast
T2 sequence (Q92888 391-870): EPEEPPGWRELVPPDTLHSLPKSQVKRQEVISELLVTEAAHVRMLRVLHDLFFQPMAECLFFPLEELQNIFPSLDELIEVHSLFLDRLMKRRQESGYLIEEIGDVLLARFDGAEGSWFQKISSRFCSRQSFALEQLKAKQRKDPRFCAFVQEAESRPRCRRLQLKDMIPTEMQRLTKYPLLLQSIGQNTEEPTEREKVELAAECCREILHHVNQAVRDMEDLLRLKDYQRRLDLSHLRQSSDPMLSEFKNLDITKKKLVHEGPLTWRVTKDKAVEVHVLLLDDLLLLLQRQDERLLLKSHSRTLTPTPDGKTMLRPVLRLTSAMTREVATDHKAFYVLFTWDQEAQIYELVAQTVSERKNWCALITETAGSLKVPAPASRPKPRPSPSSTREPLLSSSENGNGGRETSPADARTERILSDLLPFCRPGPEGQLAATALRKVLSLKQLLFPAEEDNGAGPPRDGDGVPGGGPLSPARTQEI


Assays:
[1] = system: PC12 cells; experiment: NGF-induced neurite outgrowth; type: cell-based; conditions: NGF 50 ng/ml
Protocol: PC12 were transfected with GFP-TRIPα (lack squares) or GFP (white diamonds) and subjected to a time-course exposure to NGF (50 ng/ml). At each time-point cells were fixed and the number of transfected cells with neurites was counted from at least 200 cells.
Since Trio is an activator of RhoA and is expressed in PC12 cells (Estrach et al., 2002), it was analysed whether TRIPα could interfere with serum-induced neurite retraction in NGF-differentiated PC12 cells. […] After NGF treatment, cells were subjected to serum addition (DMEM medium supplemented with 10% HS and 5% fetal calf serum (FCS)) from 0 to 15 min (FIG. 6A). Cells were then fixed and permeabilised (Estrach et al., 2002) and observed as described in FIG. 5. Cells with neurites are defined as cells with neurites of at least twice the length of the cell body.
However, since the NGF treatment was performed for 16 hours, it was still possible that the effect of TRIPα on the NGF-differentiation signal was masked by the long NGF exposure. To test this hypothesis, PC12 cells expressing GFP-TRIPα or […] were subjected to a time-course exposure to NGF (50 ng/ml) for 1 to 24 hours.

[2] = target: T3, TrioDH2 (a.a. 1848-2096) (Homo sapiens, UniProt O75962); experiment: Binding specificity of aptamers in yeast; conditions: growth on selective medium
T3 construct: TrioDH2 (a.a. 1848-2096); expressed in transfected cells; host or cells: yeast
Source text: (§1) Trx represents the thioredoxin protein with no inserted peptide.
In order to identify specific inhibitors of TrioGEFD2, a recently developed strategy was used, this strategy being derived from the yeast two hybrid system, where the cDNA library of preys has been replaced by a combinatorial library of short peptides (20 amino acids) in fusion with the bacterial protein thioredoxin A (Colas et al., 1996). This strategy has been successfully used to isolate specific inhibitors of the cyclin-dependent kinases (Cdks), the cell cycle transcription factor E2F, or the viral HPV16 E6 oncoprotein and HBEV core protein (Colas et al., 1996; Butz et al., 2001; Fabrizzio et al., 1999; Geyer et al., 2000). The TrioGEFD2 bait was constructed as follows: plasmid pMTHATrio1848-2298 (Bellanger et al., 1998) was digested with EcoRI/XhoI and the insert cloned in pEG202EcoRI/XhoI to generate the bait pEG202TroGEFD2. Yeast strain EGY048 (Colas et al., 1996) was transformed with pEG202TrioGEFD2 and subsequently with the library of Thioredoxin constrained aptamers according to standard procedures (Ito et al., 1983). After transformation, cells were allowed to recover for 4 hours in galactose containing medium before plating on selective galactose medium. Of the 2×10^6 screened colonies, those growing in the selective medium were recovered and retested for interaction. […]

[3] = target: T1, Dbl; experiment: Binding specificity of aptamers in yeast; set-up: key: +++^1 and +^1 represent respectively a full and a partial (see FIG. 1) binding capacity; +++^1 and +^1 represent respectively a full and a partial (see FIG. 1) binding capacity; −−^1 represents a lack of binding; conditions: RhoGEF Dbl
Source text: as §1
(§2) In order to identify specific inhibitors of TrioGEFD2, a recently developed strategy was used, this strategy being derived from the yeast two hybrid system, where the cDNA library of preys has been replaced by a combinatorial library of short peptides (20 amino acids) in fusion with the bacterial protein thioredoxin A (Colas et al., 1996). This strategy has been successfully used to isolate specific inhibitors of the cyclin-dependent kinases (Cdks), the cell cycle transcription factor E2F, or the viral HPV16 E6 oncoprotein and HBEV core protein (Colas et al., 1996; Butz et al., 2001; Fabrizzio et al., 1999; Geyer et al., 2000). The TrioGEFD2 bait was constructed as follows: plasmid pMTHATrio1848-2298 (Bellanger et al., 1998) was digested with EcoRI/XhoI and the insert cloned in pEG202EcoRI/XhoI to generate the bait pEG202TroGEFD2. Yeast strain EGY048 (Colas et al., 1996) was transformed with pEG202TrioGEFD2 and subsequently with the library of Thioredoxin constrained aptamers according to standard procedures (Ito et al., 1983). After transformation, cells were allowed to recover for 4 hours in galactose containing medium before plating on selective galactose medium. Of the 2×10^6 screened colonies, those growing in the selective medium were recovered and retested for interaction. […] Binding specificity was investigated by screening for interaction with the following baits: TrioDH2 (a.a. 1848-2096), TrioPH2 (a.a. 2107-2223), TrioGEFD1 (a.a. 1232-1629), Dbl (a.a. 498-826), Vav (ala. 172-598) (Zhang et al, 1994), GEFD2 domain of Kalirin (a.a. 1640-1980)(Penzes et al., 2001), p115RhoGEF (a.a. 391-870)(Wells et al, 2002) and PDZRhoGEF (a.a. 964-1362) (Fukuhara et al., 1999). None of these aptamers interacted with other RhoGEF members such as Dbl, Vav, and the RhoA-specific GEFs p115RhoGEF and PDZRhoGEF.

[4] = system: PDZRhoGEF; experiment: Binding specificity of aptamers in yeast; set-up: key: +++^1 and +^1 represent respectively a full and a partial (see FIG. 1) binding capacity; +++^1 and +^1 represent respectively a full and a partial (see FIG. 1) binding capacity; −−^1 represents a lack of binding; conditions: RhoGEF PDZRhoGEF
Source text: as §1, §2

[5] = target: T2, p115RhoGEF; experiment: Binding specificity of aptamers in yeast; set-up: key: +++^1 and +^1 represent respectively a full and a partial (see FIG. 1) binding capacity; +++^1 and +^1 represent respectively a full and a partial (see FIG. 1) binding capacity; −−^1 represents a lack of binding; conditions: RhoGEF p115RhoGEF
Source text: as §1, §2

Molecule | Effect on NGF-induced neurite outgrowth, time course ([1]; 1 to 24 hours) | Effect on NGF-induced neurite outgrowth after 16 hours NGF ([1]; 16 hours) | Binding to the DH2 catalytic domain in yeast [2] | Binding in yeast [3] | Binding in yeast [4] | Binding in yeast [5]
AREGADGAICGYNLATLVMLGPSERVFCPLCEPCSSDIYELM [TRIPα, 42-amino acid peptide corresponding to the variable region of TRIAPα] | enhances NGF-induced neurite outgrowth | had no visible effect on the NGF pathway; also recorded: does not seem to have an effect |  |  |  | 
TRIAPα: aptamer of 154 amino acids: variable region of 42 amino acids inserted into the thioredoxin protein; tested as GST fusion (protein) MSDKIIHLTDDSFDTDVLKADGAILVDFWAEWCGPAREGADGAICGYNLATLVMLGPSERVFCPLCEPCSSDIYELMGPCKMIAPILDEIADEYQGKLTVAKLNIDQNPGTAPKYGIRGIPTLLLFKNGEVASATKVGALSKGQLKEFLDANLA |  |  | also binds to the DH2 catalytic domain; also recorded: interacted with the DH2 catalytic domain alone | −−^1 | −−^1 | −−^1
